Target: SARS-CoV-2 virus particles (spike presumed target) (SARS-CoV-2 (isolate not in material)) (UniProt P0DTC2)

Sequence	binding signal
GGTATTGAGGGTCGCATCGTAATAGCGCATGTTGTGAGGCAGGCGCGAATCAGCTCGTGAGATGGCTCTAACTCTCCTCT [aptamer T (Apt@T2)]	0.74 A450
GGTATTGAGGGTCGCATCGTTACTGGACCAAACAGCACAAAGGACGCCCATAAACCCGGATGGCTCTAACTCTCCTCT [aptamer R (Apt@R2)]	0.83 A450
